# Assay results from patent CN114617961A (BEIJING ORIENTAL BAITAI BIOTECHNOLOGY CO LTD; BEIJING …, dated 2022).
# T1: LAG-3 (human, UniProt P18627 23-450, limits assumed)
# T1 sequence (looked up): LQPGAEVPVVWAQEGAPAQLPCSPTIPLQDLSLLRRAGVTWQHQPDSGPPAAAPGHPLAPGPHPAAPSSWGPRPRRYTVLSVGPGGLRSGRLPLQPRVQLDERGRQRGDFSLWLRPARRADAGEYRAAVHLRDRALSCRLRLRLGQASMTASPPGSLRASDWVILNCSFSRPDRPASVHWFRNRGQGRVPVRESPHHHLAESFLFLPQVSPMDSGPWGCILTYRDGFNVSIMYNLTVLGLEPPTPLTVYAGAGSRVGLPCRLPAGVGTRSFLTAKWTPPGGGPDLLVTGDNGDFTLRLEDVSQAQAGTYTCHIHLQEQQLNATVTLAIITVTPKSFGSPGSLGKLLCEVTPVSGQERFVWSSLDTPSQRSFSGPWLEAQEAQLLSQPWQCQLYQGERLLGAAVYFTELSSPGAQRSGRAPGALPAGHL
# Target: T1, LAG-3
# Experiment: cell-based or functional assay
row,"EC50 of IL-2 secretion in mixed lymphocyte reaction (CD4+ T cells + DC, 5 days)",Binder
1,0.121 µg/mL,"MA-4 鼠源抗体 (mouse IgG1 / mouse Ck) (antibody, V domains shown) VH: QVKLEESGPGLVQPSQSLSITCTVSAFSLTTYAVHWVRQSPGKGLEWLGVIWSGGSTDYNTAFISRLNITKDNSKSQVFFKMNSLQANDTAIYYCARLDGTFFDYWGQGTTLTVSS VL: DIVLTQTPAIMSASLGERVTMTCTASSSVSSSYLHWYQQKPGSSPKLWIYSTSNLASGVPARFSGSGSGTSYSLTISSMEAEDAATYYCHQYHRSPPTFGGGTKLEIKA"
2,0.076 µg/mL,"MA-3 鼠源抗体 (mouse IgG1 / mouse Ck) (antibody, V domains shown) VH: EVKLEESGPELVKPGASVKISCKASGYSFTSYYIHWVKQRPGQGLEWIGWIFPGTGNTRYNEKFKGKATLTADTSSSTVYMQLSGLTSEDSAVYFCARIGGRLTGDAMDYWGQGTSVTVSS VL: DIVLTQSTASLAVSLGQRATISCRASESVDSYGNSFMHWYQQKPGQPPKLLIYLASNLESGVPARFSGSGSRTDFTLTIDPVEADDAATYYCQQNNEDPWTFGGGTKLEIKA"
3,0.024 µg/mL,MA-1 鼠源抗体 (mouse IgG1 / mouse Ck) (antibody) heavy: EVQLQQSGAELVKPGASVKLSCTASGFNIKDTYMHWVKQRPEQGLEWIGKIDPANGNTKYDPKFQGKATITADTSSNTAYLQLSRLTSEDTAVYYCARDTTVGLDYWGQGTTLTVSSAKTTPPSVYPLAPGSAAQTNSMVTLGCLVKGYFPEPVTVTWNSGSLSSGVHTFPAVLQSDLYTLSSSVTVPSSTWPSETVTCNVAHPASSTKVDKKIVPRDCGCKPCICTVPEVSSVFIFPPKPKDVLTITLTPKVTCVVVDISKDDPEVQFSWFVDDVEVHTAQTQPREEQFNSTFRSVSELPIMHQDWLNGKEFKCRVNSAAFPAPIEKTISKTKGRPKAPQVYTIPPPKEQMAKDKVSLTCMITDFFPEDITVEWQWNGQPAENYKNTQPIMDTDGSYFVYSKLNVQKSNWEAGNTFTCSVLHEGLHNHHTEKSLSHSPG light: DIVITQSTAIMSASLGEKVTMSCRASSSVNYMYWYQQKSDASPKLWIYYTSKLASGVPARFSGSGSGTSYSLTISSMEAEDAATYYCQQWSSNPHTFGGGTKLEIKADAAPTVSIFPPSSEQLTSGGASVVCFLNNFYPKDINVKWKIDGSERQNGVLNSWTDQDSKDSTYSMSSTLTLTKDEYERHNSYTCEATHKTSTSPIVKSFNRNEC
4,0.03 µg/mL,"MA-2 鼠源抗体 (mouse IgG1 / mouse Ck) (antibody, V domains shown) VH: EVQLQQSGAELVKPGASVKLSCTASGFNIKDTYMHWVKQRPEQGLEWIGKIDPANGNTKYDPKFQGKATITADTSSNTAYLQLSRLTSEDTAVYYCARDTTVGLDYWGQGTTLTVSS VL: DIVLTQTPAIMSASLGEKVTMSCRASSSVNYMYWYQQKSDASPKLWIYYTSNLAPGVPARFSGSGSGNSYSLTISSMEGEDAATYYCQQFTSSPSMTFGGGTKLEIKA"

# Target: T1, LAG-3
# Experiment: cell-based or functional assay
# Remark: another data set of the same source
row,EC50 of T cell proliferation (CCK8) in mixed lymphocyte reaction,Binder
1,0.00723 µg/mL,"嵌合抗体CA-1 (antibody, human IgG4 S228P, kappa) heavy: not shown light: DIVITQSTAIMSASLGEKVTMSCRASSSVNYMYWYQQKSDASPKLWIYYTSKLASGVPARFSGSGSGTSYSLTISSMEAEDAATYYCQQWSSNPHTFGGGTKLEIKRTVAAPSVFIFPPSDEQLKSGTASVVCLLNNFYPREAKVQWKVDNALQSGNSQESVTEQDSKDSTYSLSSTLTLSKADYEKHKVYACEVTHQGLSSPVTKSFNRGEC"
2,0.0338 µg/mL,"人源化抗体HA-4 (human IgG4 / human Ck) (antibody, V domains shown) VH: QVQLVQSGAEVKKPGASVKVSCKASGYNITDTYMHWVRQAPGQGLEWIGKIDPANGNTKYDPKFQGRATITADTSISTAYMELSRLRSDDTAVYYCARDTTVGLDYWGQGTLVTVSS VL: DIVITQSPAFLSVTPGEKVTITCRASSSVNYMYWYQQKPDASPKLWIYYTSKLASGVPSRFSGSGSGTDYTFTISSLEAEDAATYYCQQWSSNPHTFGGGTKVEIKR"
3,0.0318 µg/mL,"人源化抗体HA-5 (human IgG4 / human Ck) (antibody, V domains shown) VH: QVQLVQSGAEVKKPGASVKVSCKASGYNIKDTYMHWVKQAPGQGLEWIGKIDPANGNTKYDPKFQGKATITADTSISTAYMELSRLRSDDTAVYYCARDTTVGLDYWGQGTLVTVSS VL: DIVITQSPAFLSVTPGEKVTITCRASSSVNYMYWYQQKPDASPKLWIYYTSKLASGVPARFSGSGSGTSYTFTISSLEAEDAATYYCQQWSSNPHTFGGGTKVEIKR"
4,0.00688 µg/mL,"人源化抗体HA-1 (human IgG4 / human Ck) (antibody, V domains shown) VH: QVQLVQSGAEVKKPGASVKVSCKASGYTFTDTYMHWVRQAPGQGLEWIGKIDPANGNTKYDPKFQGRATITADTSISTAYMELSRLRSDDTAVYYCARDTTVGLDYWGQGTLVTVSS VL: DIVITQSPAFLSVTPGEKVTITCRASSSVNYMYWYQQKPDASPKLWIYYTSKLASGVPSRFSGSGSGTDYTFTISSLEAEDAATYYCQQWSSNPHTFGGGTKVEIKR"
5,0.0271 µg/mL,"人源化抗体HA-2 (human IgG4 / human Ck) (antibody, V domains shown) VH: QVQLVQSGAEVKKPGASVKVSCKASGYTFTDTYMHWVRQAPGQGLEWIGKIDPANGNTKYDPKFQGRATITADTSISTAYMELSRLRSDDTAVYYCARDTTVGLDYWGQGTLVTVSS VL: DIVITQSPAFLSVTPGEKVTITCRASSSVNYMYWYQQKPDQAPKLLIYYTSKLASGVPSRFSGSGSGTDYTFTISSLEAEDAATYYCQQWSSNPHTFGGGTKVEIKR"
6,0.015 µg/mL,"人源化抗体HA-3 (human IgG4 / human Ck) (antibody, V domains shown) VH: QVQLVQSGAEVKKPGASVKVSCKASGYNITDTYMHWVRQAPGQGLEWIGKIDPANGNTKYDPKFQGRATITADTSISTAYMELSRLRSDDTAVYYCARDTTVGLDYWGQGTLVTVSS VL: DIVITQSPAFLSVTPGEKVTITCRASSSVNYMYWYQQKPDQAPKLLIYYTSKLASGVPSRFSGSGSGTDYTFTISSLEAEDAATYYCQQWSSNPHTFGGGTKVEIKR"
